Test results taken from article PMC3624760.

What was measured:
[1] = molecular target: DNA polymerase beta D160N (UniProt P06746 1-335, D160N); assay: active site titration
DNA polymerase beta WT = DNA polymerase beta WT (UniProt P06746 1-335); assay: active site titration

B1: 1 bp-gap (dsDNA)
DNA 1: CGCGCCAATCGAGCCATGTCGT
DNA 2: GTCAACGACCCACCATTCAAGA
DNA 3: TCTTGAATGGTGGGTCGTTGACGACGACATGGCTCGATTGGCGCG
[1]
  Kd: 21 nM
DNA polymerase beta WT
  Kd: 16 nM
